# Where no end group is shown, it is not given here.
# B1: Phage-3482 (peptide)
# peptide: YFKHCVPQWMCEGF
# notes: tested as crude clonal phage supernatant
# B2: Phage-3476 (peptide)
# peptide: VSPMCRPAWMCEGL
# notes: as for B1
# B3: Phage-3478 (peptide)
# peptide: SDKFCVPEWMCEWI
# notes: as for B1
# B4: Phage-3480 (peptide)
# peptide: EFIKCEPKWMCQGF
# notes: as for B1
# B5: Phage-3486 (peptide)
# peptide: YSQMCKPAWMCNGF
# notes: as for B1
# B6: Phage-3479 (peptide)
# peptide: MDARCVPSWMCIGV
# notes: as for B1
# B7: Phage-3488 (peptide)
# peptide: ITQMCKPAWMCVGL
# notes: as for B1
# B8: Phage-3477 (peptide)
# peptide: VWKTCVPEWMCVGY
# notes: as for B1
# B9: Phage-3483 (peptide)
# peptide: ITPACVPEWMCLGL
# notes: as for B1
# B10: Phage-3484 (peptide)
# peptide: AERMCVPSWMCQGL
# notes: as for B1
# B11: Phage-3485 (peptide)
# peptide: EAIRCVPVWMCQGF
# notes: as for B1
# B12: Phage-3487 (peptide)
# peptide: PVAVCKPAWMCEGF
# notes: as for B1
# B13: Phage-3489 (peptide)
# peptide: LDRMCVPLWMCEGF
# notes: as for B1
# B14: Phage-3481 (peptide)
# peptide: DTIACRPEWMCTGF
# notes: as for B1
# B15: Phage-3460 (peptide)
# peptide: NAIMCRPAWMCSGF
# notes: also called Peptide-180 library clone; not shown: pIII filament protein of the bacteriophage
# B16: Phage-3462 (peptide)
# peptide: VLRSCVPEWMCSGF
# notes: as for B15
# B17: Phage-3461 (peptide)
# peptide: TELLCTPRWMCEGF
# notes: as for B15
# B18: Phage-3459 (peptide)
# peptide: SPPLCVPVWMCHGF
# notes: as for B15
# B19: Phage-3499 (peptide)
# peptide: THPLCVPTWMCSGF
# modifications: cysteine pairing not given here; also: fused to pIII of bacteriophage, pIII and linker not given here
# notes: Peptide-180 library clone, tested as clonal phage supernatant with the peptide fused to pIII of the bacteriophage
# B20: Phage-3497 (peptide)
# peptide: VDRICKPDWMCAGF
# modifications: cysteine pairing not given here; also: fused to pIII of bacteriophage, pIII and linker not given here
# notes: as for B19
# B21: Phage-3498 (peptide)
# peptide: TVHYCTPSWMCTGF
# modifications: cysteine pairing not given here; also: fused to pIII of bacteriophage, pIII and linker not given here
# notes: as for B19
# B22: Phage-3502 (peptide)
# peptide: WLYSCIPQWMCTGF
# modifications: cysteine pairing not given here; also: fused to pIII of bacteriophage, pIII and linker not given here
# notes: as for B19
# B23: Phage-3501 (peptide)
# peptide: PLRYCEPAWMCFGF
# modifications: cysteine pairing not given here; also: fused to pIII of bacteriophage, pIII and linker not given here
# notes: as for B19
# B24: Phage-3490 (peptide)
# peptide: VNMICKPAWMCKGF
# modifications: cysteine pairing not given here; also: fused to pIII of bacteriophage, pIII and linker not given here
# notes: as for B19
# B25: Phage-3495 (peptide)
# peptide: SMAWCVPNWMCTGF
# modifications: cysteine pairing not given here; also: fused to pIII of bacteriophage, pIII and linker not given here
# notes: as for B19
# B26: Phage-3496 (peptide)
# peptide: QDMVCRPAWMCTGF
# modifications: cysteine pairing not given here; also: fused to pIII of bacteriophage, pIII and linker not given here
# notes: as for B19
# B27: Phage-3500 (peptide)
# peptide: YDHFCVPRWMCEGL
# modifications: cysteine pairing not given here; also: fused to pIII of bacteriophage, pIII and linker not given here
# notes: as for B19
# B28: Phage-3491 (peptide)
# peptide: LEMVCKPEWMCLGL
# modifications: cysteine pairing not given here; also: fused to pIII of bacteriophage, pIII and linker not given here
# notes: as for B19
# B29: Phage-3493 (peptide)
# peptide: YPTWCVPTWMCTGM
# modifications: cysteine pairing not given here; also: fused to pIII of bacteriophage, pIII and linker not given here
# notes: as for B19
# B30: Phage-3494 (peptide)
# peptide: DYMMCSPDWMCKGF
# modifications: cysteine pairing not given here; also: fused to pIII of bacteriophage, pIII and linker not given here
# notes: as for B19
# B31: Phage-3492 (peptide)
# peptide: DILRCVPEWMCTGF
# modifications: cysteine pairing not given here; also: fused to pIII of bacteriophage, pIII and linker not given here
# notes: as for B19
# Molecular target: T1, PSMA Fab (biotinylated (site not stated))
# T1 construct: Biotinylated PSMA Fab captured on neutravidin coated plates in the phage ELISA; also called Anti-PSMA Fab; 006 PSMA Fab
# Experiment: clonal phage ELISA, biotinylated PSMA Fab on neutravidin plate, anti-M13 HRP detection;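 also: crude clonal phage supernatants added to wells pretreated with blocking buffer either with or without PSMA antigen, bound phage read after washing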
# Description: (§1) Clonal phage were harvested as crude supernatants and screened via standard ELISAs. […] Prior to the addition of clonal phage. wells were incubated with blocking buffer and PSMA antigen or blocking buffer alone. Without washing or aspirating, clonal phage supernatants were then added to the wells and incubated for a short time. Wells were then washed followed by detection of bound phage using a horse radish conjugated anti-M13 antibody.
row,Binder,"Phage binding ELISA signal, Anti-PSMA Fab"
1,B1,1.72
2,B2,1.73
3,B3,1.72
4,B4,1.72
5,B5,1.72
6,B6,1.72
7,B7,1.72
8,B8,1.73
9,B9,1.72
10,B10,1.72
11,B11,1.72
12,B12,1.72
13,B13,1.71
14,B14,1.72

# Molecular target: T2, PSMA Fab (006 PSMA Fab) (Fab biotinylated for capture on neutravidin plates (site not given))
# T2 construct: also called Anti-PSMA Fab; anti-PSMA Fab
# Experiment: clonal phage ELISA; biotinylated PSMA Fab on neutravidin plate, blocking buffer alone; anti-M13-HRP detection;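 also: clonal phage applied as crude supernatants to wells preincubated with blocking buffer, binding read by ELISA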
row,Binder,"Phage binding ELISA signal, Anti-PSMA Fab"
1,B15,1.74
2,B16,1.74
3,B17,1.74
4,B18,1.74

# Molecular target: T3, Anti-PSMA Fab
# T3 construct: Biotinylated and captured on neutravidin coated plates in the phage ELISA; also called 006 PSMA Fab
# Experiment: clonal phage ELISA on captured PSMA Fab pre-incubated with PSMA antigen as competitor, anti-M13 HRP detection;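 also: crude clonal phage supernatants tested by ELISA, wells first treated with blocking buffer plus PSMA antigen, bound phage read out via HRP-linked anti-M13 antibody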
# Description: as §1
row,Binder,"Phage binding ELISA signal, Anti-PSMA Fab with PSMA antigen"
1,B19,0.0862
2,B20,0.091
3,B21,0.0866
4,B22,0.127
5,B23,0.0601
6,B24,0.0872
7,B25,0.0897
8,B26,0.0848
9,B27,0.0592
10,B28,0.0996
11,B29,0.0716
12,B30,0.0722
13,B31,0.0911

# Molecular target: T2, PSMA Fab (006 PSMA Fab)
# Experiment: clonal phage ELISA; biotinylated PSMA Fab on neutravidin plate, wells pre-incubated with PSMA antigen as competitor; anti-M13-HRP detection
# Description: as §1
row,Binder,"Phage binding ELISA signal, Anti-PSMA Fab in presence of PSMA antigen"
1,B15,0.0847
2,B16,0.075
3,B17,0.163
4,B18,0.148

# Molecular target: T1, PSMA Fab
# Experiment: clonal phage ELISA on PSMA Fab pre-incubated with PSMA antigen as competitor
# Description: as §1
row,Binder,"Phage binding ELISA signal, Anti-PSMA Fab with PSMA antigen"
1,B1,0.146
2,B2,0.0909
3,B3,0.0588
4,B4,0.0826
5,B5,0.101
6,B6,0.48
7,B7,0.123
8,B8,0.112
9,B9,0.0774
10,B10,0.0943
11,B11,0.0989
12,B12,0.0982
13,B13,0.0991
14,B14,0.0607

# Molecular target: T3, Anti-PSMA Fab
# Experiment: clonal phage ELISA on biotinylated PSMA Fab captured on neutravidin plate, anti-M13 HRP detection, blocking buffer alone
# Description: as §1
row,Binder,"Phage binding ELISA signal, Anti-PSMA Fab"
1,B19,1.7
2,B20,1.7
3,B21,1.7
4,B22,1.7
5,B23,1.7
6,B24,1.71
7,B25,1.7
8,B26,1.7
9,B27,1.7
10,B28,1.71
11,B29,1.71
12,B30,1.7
13,B31,1.71

# — patent US20260242478A1 (published 2026)
